# Test results published in patent US20240101663A1.
# How the values were obtained:
# [1] = target: T1, CCDC112 recombinant protein (coiled-coil domain-containing protein 112) (human) (UniProt Q8NEF3); experiment: ELISA, coated CCDC112, LILRB2-hFc, 0 ug/mL CCDC112 antibody; number over the bar
# T1 sequence: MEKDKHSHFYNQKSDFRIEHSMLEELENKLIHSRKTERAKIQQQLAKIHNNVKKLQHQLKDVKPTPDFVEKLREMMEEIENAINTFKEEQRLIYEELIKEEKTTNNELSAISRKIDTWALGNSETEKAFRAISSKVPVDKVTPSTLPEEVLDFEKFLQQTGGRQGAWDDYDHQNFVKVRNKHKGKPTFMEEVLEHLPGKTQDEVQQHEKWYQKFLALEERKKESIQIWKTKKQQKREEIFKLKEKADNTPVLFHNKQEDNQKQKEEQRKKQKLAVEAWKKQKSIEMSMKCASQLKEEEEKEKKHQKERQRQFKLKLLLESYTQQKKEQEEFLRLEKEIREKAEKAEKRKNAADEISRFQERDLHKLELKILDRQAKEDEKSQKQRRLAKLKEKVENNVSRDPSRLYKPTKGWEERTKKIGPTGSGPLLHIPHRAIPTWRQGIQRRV
# [2] = target: CCDC112 on HCT116 tumor cells (including HCT116 cells stably overexpressing CCDC112) (human) (UniProt Q8NEF3); experiment: flow cytometry on HCT116 cells overexpressing CCDC112; ambiguous fit of a flat control curve (see non_binding); table gives no unit, unit from the x axis
# Sequence of LILRB2-hFc (LILRB2 extracellular region protein fragment labeled with hFc) (Q8N423 22-460): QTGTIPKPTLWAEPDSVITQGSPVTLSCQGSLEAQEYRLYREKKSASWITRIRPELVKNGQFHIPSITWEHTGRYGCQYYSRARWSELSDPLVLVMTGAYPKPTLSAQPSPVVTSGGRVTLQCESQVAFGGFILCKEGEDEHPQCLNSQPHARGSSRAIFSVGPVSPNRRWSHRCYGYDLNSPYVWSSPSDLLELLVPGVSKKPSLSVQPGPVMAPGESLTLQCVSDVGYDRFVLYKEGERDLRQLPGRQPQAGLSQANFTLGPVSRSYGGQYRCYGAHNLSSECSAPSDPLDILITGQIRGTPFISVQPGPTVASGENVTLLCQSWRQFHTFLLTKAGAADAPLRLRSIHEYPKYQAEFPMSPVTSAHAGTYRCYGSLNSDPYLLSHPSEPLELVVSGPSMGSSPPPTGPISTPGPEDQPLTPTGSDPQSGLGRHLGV
OD450 [1] [OD450],EC50 [2] [nM],Substance
1.58,–,LILRB2-hFc (LILRB2 extracellular region protein fragment labeled with hFc) (from UniProt Q8N423 22-460) (Fc fusion)
–,44.9,mIgG1 (antibody)
